Experiments:
[1] = molecular target: T1, GST-ICR1 (Arabidopsis, UniProt Q8LE98 1-344); assay: pull-down; GST-ICR1 (1.2 μg) or GST (0.4 μg) on Glutathione sepharose, 0.5 μg His6-CMI1; 20 mM Tris-HCl pH 7.5, 5 mM CaCl2, 0.1 mg/mL BSA, 200 mM NaCl, 1% Triton X-100, RT; wash with 1 M NaCl; conditions: both partners purified
T1 construct: ICR1, Arabidopsis; source: E. coli Rosetta (DE3), purified (Glutathione sepharose)
T1 sequence (looked up): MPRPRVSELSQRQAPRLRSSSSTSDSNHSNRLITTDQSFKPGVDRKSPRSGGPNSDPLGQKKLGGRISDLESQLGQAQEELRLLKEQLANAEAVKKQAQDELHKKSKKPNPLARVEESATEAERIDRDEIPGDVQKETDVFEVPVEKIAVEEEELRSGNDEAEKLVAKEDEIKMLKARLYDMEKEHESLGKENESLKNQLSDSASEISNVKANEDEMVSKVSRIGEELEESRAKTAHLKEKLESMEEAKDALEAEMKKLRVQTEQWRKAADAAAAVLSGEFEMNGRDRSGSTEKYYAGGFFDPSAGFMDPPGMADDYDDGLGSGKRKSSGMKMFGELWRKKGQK

[2] = molecular target: T2, His6-ICR1 (Arabidopsis, UniProt Q8LE98 1-344); assay: co-IP; His6-CMI1 and His6-ICR1, 1 μg each, in 300 μL Ca^2+ reaction buffer (20 mM Tris-HCl pH 7.5, 5 mM CaCl2, 0.1 mg/mL BSA, 200 mM NaCl, 1% Triton X-100), RT; anti-CMI1 antibodies and Protein A beads; blot with anti poly-His; conditions: both partners purified
T2 construct: ICR1, Arabidopsis; also called His-ICR1; source: E. coli Rosetta (DE3), purified (Ni-NTA)
T2 sequence (looked up): T1 sequence (looked up)

binding result [1]: binds
binding result [2]: binds
B1: His6-CMI1 (natural protein, Arabidopsis, UniProt O81831 1-130, looked up)
chain: MASPKSPTRPTQQNPQPNFHDFLPTMAGNLGGEGLIGELCNGFELLMDREKGVITFESLRRNAAAVLGLGDLTDEDVRCMIKEGDFDCDGALNQMEFCVLMFRLSPDLMEASRCLVTEVIEEEFGFTRRH
notes: CMI1, Arabidopsis, At4g27280; also called His-CMI1; source: E. coli Rosetta (DE3), purified (Ni-NTA)

— publication doi:10.1101/488536, “The Ca^2+ sensor protein CMI1 fine tunes root development, auxin distribution and responses” (bioRxiv, 2018)
